Where a chain is given by its changes, count along the chain named. In names and notes the source's numbering stands.
Columns and labels:
[1] = molecular target: T1, denatured bovine pancreatic Ribonuclease B (bovine, UniProt P61823 27-150); test: SPR (Biacore 3000), dRNase B immobilised on CM5, steady state
T1 construct: mature; also called dRNase B; denatured RNase B
T1 sequence: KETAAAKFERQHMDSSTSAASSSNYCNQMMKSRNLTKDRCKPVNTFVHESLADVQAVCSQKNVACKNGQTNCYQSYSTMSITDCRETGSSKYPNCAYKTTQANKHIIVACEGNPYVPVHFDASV
Description: A high-density surface was prepared with sufficient ligand coupling to yield a theoretical $RMAX$ of ~3000 RU. To assess the impact of the D60C mutation in R911 relative to wtPNGase F, the R911 C60A mutant was also evaluated. Steady-state binding kinetics using a bimolecular interaction model was determined using a Biacore 3000 instrument.
(§1) Using a similar strategy, denatured RNase B was immobilized on a CM-5 sensor chip and serially-diluted concentrations of wtPNGase F, D60A, R911, and R911 C60A were passed over the sensor surface, while binding kinetics were measured.
Dissociation (K_D) and off-rate constants ($koff$) for the interaction between denatured glycoprotein RNase B (dRNase B) with PNGase F mutagenized clones as determined by surface plasmon resonance.

[2] = molecular target: T1, denatured bovine pancreatic …; test: SPR (Biacore 3000), dRNase B immobilised on CM5
[3] = molecular target: T1, denatured bovine pancreatic …; test: SPR (Biacore 3000), dRNase B immobilised on CM5; calculated from KD
Description: Steady-state binding kinetics using a bimolecular interaction model was determined using a Biacore 3000 instrument.
as §1
Dissociation (K_D) and off-rate constants ($koff$) for the interaction between denatured glycoprotein RNase B (dRNase B) with PNGase F mutagenized clones as determined by surface plasmon resonance. Kinetic data s as determined with dRNase B as immobilized ligand on CM5 sensor chip and PNGase F clone analytes.

[4] = molecular target: T1, denatured bovine pancreatic …; test: experimental binding free energy from SPR with dRNase B, relative to D60A
[5] = molecular target: T2, RNase B deglycosylated with PNGase F (bovine, UniProt P61823 27-150); test: R911 affinity chromatography
T2 construct: mature; also called deglycosylated RNase B
T2 sequence: T1 sequence with N34D

Histone H2A.Z = molecular target: T3, Histone H2A.Z (human); test: R911 affinity column, MCF7 cell extract, chitobiose elution, LC-MS/MS
T3 construct: From MCF7 cell extract
T3 sequence (chain, as listed by the source limits assumed): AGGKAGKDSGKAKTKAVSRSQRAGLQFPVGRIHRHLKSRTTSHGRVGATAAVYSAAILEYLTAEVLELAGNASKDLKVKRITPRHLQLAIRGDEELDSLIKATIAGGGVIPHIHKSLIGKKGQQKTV
Description: (§2) Cell extract (100 µg) was loaded onto a R911 affinity column and then competitively eluted with free chitobiose in the binding buffer, instead of the standard elution buffer (FIG. 37).
(§3) Human breast cancer MCF7 cells were cultured in DMEM media supplemented with 10% fetal bovine serum. Cells were passaged and harvested using trypsin-free cell release. Approximately, 2.3 ×10^7 cells were harvested and washed 3× with 10 mL of phosphate buffered saline at 4° C. by centrifugation at 1000×g for 5 minutes. The cell pellet was resuspended in 1.5 mL of filter sterilized cell lysis buffer (10 mM Tris-HCl, pH 7.5, 150 mM NaCl, 1% v/v Nonidet P-40) with EDTA-free protease inhibitor cocktail (Roche Diagnostics, Mannheim, Germany) and incubated on ice for 30 minutes.[17] The cells were ultra-sonicated (Misonix Ultrasonic Liquid Processor Model S-4000) at intervals of 15 seconds for a total of 2 minutes, with a 15 second pause between treatments (30% amplitude). […] The supernatant containing the MCF7 cell extract was stored at −80° C. in 50 µL aliquots. […] An aliquoted MCF7 cell extract stock was thawed on ice and diluted to 1 mg/mL using 10 mM HEPES, 10 mM NaCl, at pH 7.4.
(§4) LC-MS/MS Protein Identification of R911 Lectenz® Affinity Chromatography Eluted Samples MCF7 cell extract and proteins eluted from the R911 Lectenz® affinity column were reduced, alkylated and digested with sequence grade trypsin (Promega) using a standard in-solution digest protocol.[30] The samples were acidified with 1% trifluroacetic acid and desalting was performed using C18 spin columns (Silica C18, The Nest Group, Inc.).

Histone H2A.x = molecular target: T4, Histone H2A.x (human, UniProt P16104 2-143); test: as above
T4 construct: From MCF7 cell extract
Description: as §2, §3, §4

Histone H2A type 1-B/E = molecular target: T5, Histone H2A type 1-B/E (human); test: as above
T5 construct: From MCF7 cell extract; also called H2A1B
Description: as §2, §3, §4

Histone H2A type 2-C = molecular target: T6, Histone H2A type 2-C (human); test: as above
T6 construct: From MCF7 cell extract; also called H2A2C
Description: as §2, §3, §4

[6] = molecular target: T1, denatured bovine pancreatic …; test: experimental binding free energy from SPR with denatured RNase B

B1: wild-type PNGase F from Flavobacterium meningosepticum (enzyme)
chain: GIPAPADNTVNIKTFDKVKNAFGDGLSQSAEGTFTFPADVTAVKTIKMFIKNECPNKTCDEWDRYANVYVKNKTTGEWYEIGRFITPYWVGTEKLPRGLEIDVTDFKSLLSGNTELKIYTETWLAKGREYSVDFDIVYGTPDYKYSAVVPVVQYNKSSIDGVPYGKAHTLALKKNIQLPTNTEKAYLRTTISGWGHAKPYDAGSRGCAEWCFRTHTIAINNSNTFQHQLGALGCSANPINNQSPGNWTPDRAGWCPGMAVPTRIDVLNNSLIGSTFSYEYKFQNWTNNGTNGDAFYAISSFVIAKSNTPISAPVVTNLDPHHHHHH
notes: also called wtPNGase F; 1PNF
Kd [1]: 6400 nM
koff [2]: 0.01 s⁻¹
ΔGBIND-EXP [3]: -7.1 kcal/mol
ΔΔGBIND-EXP (relative to D60A) [4]: 0.5 kcal/mol

B2: PNGase F D60A single point mutant (enzyme)
chain: B1 chain with D63A
notes: also called D60A control clone
Kd [1]: 2700 nM
Relative Affinity Enhancement (against D60A) [2]: 1 fold
Relative Off-Rate Enhancement (against D60A) [2]: 1 fold
koff [2]: 0.43 s⁻¹
ΔGBIND-EXP [3]: -7.61 kcal/mol

B3: PNGase F clone R911 (D57L, D60C, I156L, G192I, E206S, R248W) (designed binder)
chain: B1 chain with D60L, D63C, I159L, G195I, E209S, R251W
binding result [5]: no binding
Kd [1]: 260 nM
Relative Affinity Enhancement (against D60A) [2]: 10 fold
Relative Off-Rate Enhancement (against D60A) [2]: 84 fold
koff [2]: 0.0051 s⁻¹
ΔGBIND-EXP [3]: -8.99 kcal/mol
binding result (Histone H2A.Z): binds
binding result (Histone H2A.x): binds
binding result (Histone H2A type 1-B/E): binds
binding result (Histone H2A type 2-C): binds
ΔΔGBIND-EXP (relative to D60A) [4]: -1.9 kcal/mol
ΔΔGBIND-EXP (relative to R911 C60A) [6]: -1.2 kcal/mol

B4: PNGase F clone R911 C60A (D57L, D60A, I156L, G192I, E206S, R248W) (designed binder)
chain: B1 chain with D60L, D63A, I159L, G195I, E209S, R251W
Kd [1]: 2000 nM
Relative Affinity Enhancement (against D60A) [2]: 1.3 fold
Relative Off-Rate Enhancement (against D60A) [2]: 35 fold
koff [2]: 0.012 s⁻¹
ΔGBIND-EXP [3]: -7.77 kcal/mol
ΔΔGBIND-EXP (relative to D60A) [4]: -0.7 kcal/mol

Reference: patent US11001824 (UNIVERSITY OF GEORGIA RESEARCH FOUNDATION, dated 2021)
